From patent US20190127480A1 (Regeneron, published 2019)

Assays:
[1] = molecular target: T1, Soluble heterodimeric CD3 protein (hCD3-epsilon/hCD3-delta) with either a human Fc tag (hFcΔAdp/hFc) or a … (human, UniProt P07766 23-126; P04234 22-105); experiment: SPR Biacore 25C antibody-capture, 1-arm
T1 construct: also called hCD3ε/δ; not shown: Fc tag: human (hFcΔAdp/hFc)
Protocol: (§1) Soluble heterodimeric CD3 protein (hCD3-epsilon/hCD3-delta; SEQ ID NOs:1652/1653) with either a human Fc tag (hFcΔAdp/hFc; SEQ ID NOs:1683/1684) or a mouse Fc tag (mFcΔAdp/mFc; SEQ ID NOs:1685/1686) was injected over the antibody captured surface and the binding response was recorded. Heterodimeric CD3 protein was purified using the method described in Davis et al. (US2010/0331527).
(§2) Kinetic association (kₐ) and dissociation (kd) rate constants were determined by processing and fitting the data to a 1:1 binding model using Scrubber 2.0 curve fitting software. Binding dissociation equilibrium constants (KD) and dissociative half-lives (t₁₁₂) were calculated from the kinetic rate constants as: KD (M)=kd/kₐ; and t_{1/2} (min)=(ln 2/(60*kd). NT=not tested; NB=no binding observed.

[2] = molecular target: T1, Soluble heterodimeric CD3 protein …; experiment: SPR Biacore 25C antigen-capture, 1-arm
Protocol: (§3) In the antigen-capture format, heterodimeric CD3 protein was captured using a rabbit anti-mouse Fc or mouse anti-human Fc and the respective antibodies were injected over the captured antigen.
as §2

[3] = molecular target: T1, Soluble heterodimeric CD3 protein …; experiment: SPR Biacore 25C antibody-capture
Protocol: (§4) Measurements were conducted on a T200 Biacore™ instrument.
as §1, §2

[4] = molecular target: T1, Soluble heterodimeric CD3 protein …; experiment: SPR Biacore 25C antigen-capture
Protocol: as §4, §3, §2

T1 sequence (P07766 23-126 limits assumed, stated change not applied, chain 1 of 2): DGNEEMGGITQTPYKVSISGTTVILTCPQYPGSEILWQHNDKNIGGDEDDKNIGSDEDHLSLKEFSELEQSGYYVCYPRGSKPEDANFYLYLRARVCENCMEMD
T1 sequence (P04234 22-105 limits assumed, stated change not applied, chain 2 of 2): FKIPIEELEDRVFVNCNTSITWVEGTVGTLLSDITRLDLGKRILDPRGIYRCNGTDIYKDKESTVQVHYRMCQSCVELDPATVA

B1: H1xH7221G5 (monovalent 1-arm) (antibody, V domains shown)
VH: EVQLVESGGGLVQPGRSLRLSCAASGFTFDDYSMHWVRQAPGKGLEWVSGISWNSGSIGYADSVKGRFTISRDNAKNSLYLQMNSLRAEDTALYYCAKDGSGYGKFYYYGMDVWGQGTTVTVSS
VL: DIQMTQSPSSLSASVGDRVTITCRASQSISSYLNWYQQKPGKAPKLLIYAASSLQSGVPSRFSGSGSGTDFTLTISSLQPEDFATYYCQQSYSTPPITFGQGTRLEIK
notes: Monovalent 1-arm: second Fab removed, only the Fc portion (CH2-CH3) expressed; prefix H1xH not explained
binding result [1]: no binding

B2: H1H7198P (monovalent 1-arm) (antibody, human IgG1, V domains shown)
VH: EVQLVESGGGLVQPGRSLRLSCAASGFTFADYTMHWVRQVPGKGLEWVSDISWNSGSKDYADSVKGRFTISRDNAKNFLYLQMNSLRAEDTALYYCVKYGSGYGKFYFYAMDVWGQGTTVTVSS
VL: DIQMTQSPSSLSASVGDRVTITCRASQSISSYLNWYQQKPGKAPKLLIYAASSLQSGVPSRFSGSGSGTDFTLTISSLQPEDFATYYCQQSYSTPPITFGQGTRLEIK
notes: Monovalent 1-arm: second Fab removed, only the Fc portion (CH2-CH3) expressed; human IgG1 Fc; tied by numerical identifier; also called H1H7198B
Kd [2]: 0.112 nM | T½ [2]: 163 min | koff [2]: 7.07e-05 s⁻¹ | kon [2]: 628000 M⁻¹ s⁻¹ | Kd [1]: 6.02 nM | T½ [1]: 73 min | koff [1]: 0.000158 s⁻¹ | kon [1]: 26300 M⁻¹ s⁻¹

B3: H1H7221P (monovalent 1-arm) (antibody, human IgG1, V domains shown)
VH: EVQLVESGGGLVQPGRSLRLSCVASGFTFDDYSMHWVRQAPGKGLEWVSGISWNSGSKDYADSVKGRFTISRDNAKNSLYLQMNSLRAEDTALYYCAKYGSGYGKFYHYGLDVWGQGTTVTVSS
VL: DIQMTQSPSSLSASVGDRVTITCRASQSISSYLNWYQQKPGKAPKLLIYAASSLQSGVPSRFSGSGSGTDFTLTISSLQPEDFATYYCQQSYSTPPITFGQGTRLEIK
notes: Monovalent 1-arm: second Fab removed, only the Fc portion (CH2-CH3) expressed; human IgG1 Fc; tied by numerical identifier; also called H1H7221B
Kd [2]: 1.75 nM | T½ [2]: 48 min | koff [2]: 0.000239 s⁻¹ | kon [2]: 136000 M⁻¹ s⁻¹ | Kd [1]: 27.5 nM | T½ [1]: 40 min | koff [1]: 0.000292 s⁻¹ | kon [1]: 10700 M⁻¹ s⁻¹

B4: H1xH7221G3 (monovalent 1-arm) (antibody, V domains shown)
VH: EVQLVESGGGLVQPGRSLRLSCAASGFTFDDYSMHWVRQAPGKGLEWVSGISWNSGSIGYADSVKGRFTISRDNAKNSLYLQMNSLRAEDTALYYCAKDGSGYGYFYYYGMDVWGQGTTVTVSS
VL: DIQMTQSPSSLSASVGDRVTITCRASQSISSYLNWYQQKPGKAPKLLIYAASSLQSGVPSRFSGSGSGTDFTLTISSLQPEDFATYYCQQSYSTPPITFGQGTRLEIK
notes: as for B1
binding result [1]: no binding

B5: H1H5772S (antibody, V domains shown)
VH: QVQLVESGGGLVQPGRSLRLSCAASGFSFDDYAMHWVRQAPGQGLEWVSGISWNGGSRDYADSVKGRFTISRDNARNSLFLQMNSLFTEDTALYYCAKDKSGYGSYFYGMDVWGQGTTVTVSS
VL: EIVLTQSPGILSLSPGDRATLSCRASQSIRNIYLAWYQQKPGQAPRLLIHGASTRATGIPDRFSGSGSGTDFTLTISRLEPEDFAVYYCQQRVSSPYTFGQGTKLEIK
notes: H1H: human IgG1 Fc; divalent; also called H1H5772P
Kd [3]: 99.6 nM | T½ [3]: 7 min | koff [3]: 0.00155 s⁻¹ | kon [3]: 15600 M⁻¹ s⁻¹ | Kd [4]: 1.67 nM | T½ [4]: 13 min | koff [4]: 0.000869 s⁻¹ | kon [4]: 519000 M⁻¹ s⁻¹

B6: H1H5780P (antibody, human IgG1, V domains shown)
VH: EVQLVESGGGLVQPGRSLRLSCAASGFTFDDYAMHWVRQAPGKGLEWVSGISWNGGSKDYADSVKGRFTISRDNTRNSLSLQMNSLRIEDTALYYCAKDKSGYGSFYYGLDVWGQGTTVTVSS
VL: EIVLTQSPGTLSLSPGDRATLSCRASQSIRSIYLAWYQQKPGQAPRLLIHGASTRATGIPDRFSGSGSGTDFTLTISRLEPEDFAVYYCQQRVSSPYTFGQGTKLEIK
notes: H1H: human IgG1 Fc; divalent
Kd [3]: 30.4 nM | T½ [3]: 29 min | koff [3]: 0.000399 s⁻¹ | kon [3]: 13100 M⁻¹ s⁻¹ | Kd [4]: 0.358 nM | T½ [4]: 68 min | koff [4]: 0.000171 s⁻¹ | kon [4]: 478000 M⁻¹ s⁻¹

B7: H1H5778P (antibody, human IgG1, V domains shown)
VH: EVQLVESGGGLVQPGRSLRLSCVASGFTFADFTMHWVRQAPGKGLEWVSGISWNSNSIDYADSVKGRFTISRDNAKKSLFLQMSSLRAEDTALYYCVKDRSGYSRFYYGMDVWGQGTTVTVSS
VL: EIVMTQSPATLSVSPGERAILSCRASQNINSNLAWYQQKPGQAPRLLIYGASTRATGVPARFSGSGSGTEFTLTIRSLQSEDFAVYYCQQYYNWPITFGHGTRLEIK
notes: H1H: human IgG1 Fc; divalent
Kd [3]: 27.8 nM | T½ [3]: 75 min | koff [3]: 0.000154 s⁻¹ | kon [3]: 5520 M⁻¹ s⁻¹ | Kd [4]: 0.0856 nM | T½ [4]: 338 min | koff [4]: 3.42e-05 s⁻¹ | kon [4]: 399000 M⁻¹ s⁻¹

B8: H1H5781P (antibody, human IgG1, V domains shown)
VH: EVQLVESGGGLVQPGRSLRLSCAASGFTFDDFTMHWVRQAPGKGLEWVSDISWNSGSIDYADSVKGRFTISRDNARNSLFLQMSSLRTEDTASYYCIKDKSGYGSYNYGLDVWGQGTTVTVSS
VL: EIVLTQSPGTLSLSPGDRATLSCRASQSVSSIYLAWYQQKPGQAPRLLIHGASTRATGIPDRFSGSGSGTDFTLTISRLEPEDFALYYCHQRVSSPYTFGQGTKLEIK
notes: H1H: human IgG1 Fc; divalent
Kd [3]: 57.7 nM | T½ [3]: 23 min | koff [3]: 0.000497 s⁻¹ | kon [3]: 8610 M⁻¹ s⁻¹ | Kd [4]: 1.92 nM | T½ [4]: 43 min | koff [4]: 0.000268 s⁻¹ | kon [4]: 140000 M⁻¹ s⁻¹

B9: H1H5786B (antibody, human IgG1, V domains shown)
VH: QVQLVESGAEVKKPGASVKVSCKTSGYTFTGYYMHWIRQAPGQGLEWMGWINPKSGGTNYAQKFQGRVTMTRDTSISTAYMELSRLRSDDMAVYYCARMGDGAVFDFWGQGTLVTVSS
VL: AIQMTQSPSSLSASVGDRVTITCRASQRISSFLNWYQQKPGKAPKLLIYTASNLQNGVPSRFSGSGSGTDFTLTISSLQPEDFATYYCQQSYRTPLTFGGGTKVEIKR
notes: H1H: human IgG1 Fc; divalent
Kd [3]: 85.4 nM | T½ [3]: 11 min | koff [3]: 0.00108 s⁻¹ | kon [3]: 12600 M⁻¹ s⁻¹ | Kd [4]: 0.141 nM | T½ [4]: 27 min | koff [4]: 0.000424 s⁻¹ | kon [4]: 3e+06 M⁻¹ s⁻¹

B10: H1H5791B (antibody, human IgG1, V domains shown)
VH: QVQLVESGAEVKKPGASVKVSCKTSGYTLSGYYMHWMRQAPGQGLEWMGWINPKSGVTNYAQKFQDRVAMTRDTSISTAYMELSRLRSDDTAVYYCARMGDGAVFDFWAQGTLVTVSS
VL: DIQLTQSPSSLSASVGDRVTITCRASQRISSFLNWYQQKPGKAPKLLIYTASNLQNGVPSRFSGSGSGTDFTLTISSLQPEDFATYYCQQSYRTPLTFGGGTKLEIKR
notes: H1H: human IgG1 Fc; divalent
Kd [3]: 72.5 nM | T½ [3]: 15 min | koff [3]: 0.00079 s⁻¹ | kon [3]: 10900 M⁻¹ s⁻¹ | Kd [4]: 0.433 nM | T½ [4]: 34 min | koff [4]: 0.00034 s⁻¹ | kon [4]: 786000 M⁻¹ s⁻¹

B11: H1H5790B (antibody, human IgG1, V domains shown)
VH: EVQLVESGGGVVQPGRSLRLSCAASGFTFSYYGMHWVRQAPGKGLEWVAVISFDGKNKYYADSVMGRFTISRDNSKNTLYLQMNSLRAEDSAVFFCARSYDILTGYGAGYSYHYGMDVWGQGTTVTVSS
VL: AIQMTQSPSSLSASVGDRVTITCRASQRISSFLNWYQQKPGKAPKLLIYTASNLQNGVPSRFSGSGSGTDFTLTISSLQPEDFATYYCQQSYRTPLTFGGGTKVEIKR
notes: H1H: human IgG1 Fc; divalent
Kd [3]: 28.3 nM | T½ [3]: 22 min | koff [3]: 0.000517 s⁻¹ | kon [3]: 18200 M⁻¹ s⁻¹ | Kd [4]: 0.254 nM | T½ [4]: 49 min | koff [4]: 0.000236 s⁻¹ | kon [4]: 925000 M⁻¹ s⁻¹

B12: H1H5793B (antibody, human IgG1, V domains shown)
VH: QVQLVQSGTEVKKPGASMKVSCKASGYTFTGYYIHWVRQAPGQGLEWMGWINPNSDVTKYAQKFQGRVTLTRDTSISAAYIDLSRLRSDDTAIYYCARMGDGAVFDYWGQGTLVTVSS
VL: DIQLTQSPSSLSASVGDRVTITCRASQRISSYLNWYQQKPGKAPKVLISVASSLQSGVPSRFSGSGFGTDFTLTISSLQPEDSASYYCQQSYNTPLTFGGGTKLEIKR
notes: H1H: human IgG1 Fc; divalent
Kd [3]: 44.7 nM | T½ [3]: 30 min | koff [3]: 0.000382 s⁻¹ | kon [3]: 8540 M⁻¹ s⁻¹ | Kd [4]: 0.333 nM | T½ [4]: 73 min | koff [4]: 0.000159 s⁻¹ | kon [4]: 478000 M⁻¹ s⁻¹

B13: H1H5795B (antibody, human IgG1, V domains shown)
VH: EVQLVESGAEVKKPGASVKVSCKTSGYSFIGYYIHWMRQAPGQGLEWMGWINPKSGVTNYAQRFQGRVTMTRDTSISTAYMELSRLKSDDTAVYFCARMGDGAVFDFWGQGTLVTVSS
VL: DIQLTQSPSSLSASVGDRVTITCRASQRISSFLNWYQQKPGKVPKLLIYTASNLQNGVPSRFSGTGSGTDFTLTISSLQPEDFATYYCQQSYRTPLTFGGGTKVDIKR
notes: H1H: human IgG1 Fc; divalent
Kd [3]: 33.3 nM | T½ [3]: 20 min | koff [3]: 0.000576 s⁻¹ | kon [3]: 17300 M⁻¹ s⁻¹ | Kd [4]: 0.145 nM | T½ [4]: 50 min | koff [4]: 0.000229 s⁻¹ | kon [4]: 1.58e+06 M⁻¹ s⁻¹

B14: H1H5799P (antibody, human IgG1, V domains shown)
VH: QVQLVQSGAEVKKPGASVKVSCKASGYTFIGYYMHWVRQAPGQGLEWMGWINPKSGGTNYAQKFQGRVTMTGDTSISTAYMELSRLRSDDTAVFYCARMGDGAMFDYWGQGTLVTVSS
VL: DIQMTQSPSSLSASVGDRVTITCRASQRISSYLNWYQQKAGKAPKVLIYTASSLQSGVPSRFSGSGSGTDFTLTISSLQPEDFATYYCQQSYSTPLTFGGGTKVEIK
notes: H1H: human IgG1 Fc; divalent
Kd [3]: 579 nM | T½ [3]: 1 min | koff [3]: 0.00788 s⁻¹ | kon [3]: 13600 M⁻¹ s⁻¹ | Kd [4]: 7.85 nM | T½ [4]: 2 min | koff [4]: 0.00564 s⁻¹ | kon [4]: 718000 M⁻¹ s⁻¹

B15: H1H5801B (antibody, human IgG1, V domains shown)
VH: QVQLVQSGGGVVQPGGSLRLSCAASGFTFDDYAMHWVRQAPGKGLEWVSLISGDGGSTYYADSVKGRFTISRDNSKNSLYLQMNSLRTEDTALYYCAKDDSSSSWYYYYYGMDVWGRGTTVTVSS
VL: DIQMTQSPSSLSASVGDRVTITCRASQRISSYLNWYQQKPGKAPKVLISVASSLQSGVPSRFSGSGSGTDFTLTISSLQPEDFASYYCQQSYNTPLTFGGGTKVEIKR
notes: H1H: human IgG1 Fc; divalent
Kd [3]: 246 nM | T½ [3]: 7 min | koff [3]: 0.00162 s⁻¹ | kon [3]: 6570 M⁻¹ s⁻¹ | Kd [4]: 3.38 nM | T½ [4]: 10 min | koff [4]: 0.00112 s⁻¹ | kon [4]: 331000 M⁻¹ s⁻¹
